Assay results from publication PMC7822592, “The half-life of the bone-derived hormone osteocalcin is regulated through O-glycosylation in mice, but not in humans” (eLife, 2020).
No end group written: not given here.

Tests used:
INS-1 832/3 cells [1] = test: OCN stability in INS-1 832/3 cell culture media; type: in vitro ADME, rat; details: 8 hours at 4°C without cells, ELISA
INS-1 832/3 cells [2] = test: Ins1 gene expression in INS-1 832/3 cells treated with ucOCN; type: cell-based, rat; details: 8 hr; for Ins1 gene expression (Fold change relative to vehicle): 0.3 ng/mL, qPCR
Method: (§1) The INS-1 832/3 rat insulinoma cell line (Millipore-Sigma) was cultured in RPMI-1640 with 11.1 mM D-glucose, supplemented with 2 mM L-glutamine, 1 mM sodium pyruvate, 10 mM HEPES, 0.05 mM β-mercaptoethanol and 10% FBS ([Hohmeier et al., 2000]). On day 1, cells were plated at 3 × 10^5 cells per well in 12-well plates and on day 5, cells were washed with PBS and incubated with culture media containing 5 mM D-glucose. Twenty-four hours later, cells were washed with PBS and incubated for 4 hr in culture media containing 1% FBS, 5 mM D-glucose and 0.1% BSA. OCN was added for 8 hr before supernatants and cells were harvested. ucOCN and O-gly ucOCN concentration were measured in supernatants by ELISA and cells were lyzed and RNA extracted as described in the material and methods section. Gene expression was analyzed using rat specific primers for Ins1 and Gapdh.

[3] = Ex vivo half-life of mouse OCN in plasma; type: in vitro ADME; details: 100 ng/ml
Method: The mouse OCN ex vivo half-life assays were performed with fresh plasma (lithium heparin) collected from four independent Bglap-/- mice. Glycosylated OCN produced in HEK293 cells and non-glycosylated OCN, produced in bacteria as previously described ([Ferron et al., 2012]), were incubated at 100 ng/ml in plasma at 37°C and OCN level was measured at indicated time points using the total mouse OCN ELISA assay described previously ([Ferron et al., 2010b]). […] The detection antibody is a goat polyclonal antibody directed against the C-terminal region (amino acids 26 to 46) of mouse OCN (anti-CTERM OCN). This assay detects with the same sensitivity glycosylated and non-glycosylated mouse OCN at concentration of 50 ng/ml or less (Figure 3—figure supplement 2). Therefore, all samples were diluted to be in this range before being measured by the ELISA. Human OCN half-life assay was performed ex vivo using Bglap-/- mice plasma and human OCN at 60 ng/ml. Human OCN level was measured at different time point using the human ucOCN ELISA described above. At the experiment start point (T0), an aliquot of plasma was diluted in ELISA assay buffer and kept on ice for OCN measurements. In some experiments, plasma was heat-inactivated for 30 min at 56°C, or treated with EDTA (10 mM, Wisent), phenylmethylsulfonyl fluoride (PMSF, 10 mM, Sigma), pepstatin A (Pep A, 10 μM, Sigma) which inhibits aspartic proteases (pepsin, cathepsin D, renin, chymosin), RVKR (Dec-RVKR-CMK, 50 μM; Tocris) or talabostat (10 mM; Tocris). Results are calculated in percentage relative to the initial concentration of non-glycosylated and glycosylated OCN respectively.

INS-1 832/3 cells [4] = test: OCN stability in INS-1 832/3 cell culture media; type: in vitro ADME, rat; details: 8 hours with INS-1 cells at 37°C, ELISA
Method: as §1

## ucOCN: Non-glycosylated uncarboxylated mouse osteocalcin produced in bacteria (YLGASVPSPDPLEPTREQCELNPACDELSDQYGLKTAYKRIYGITI; ends and bridges not checked; cysteine pairing not given here; UniProt P86546 50-95, looked up)
INS-1 832/3 cells [1]; replicate 1
  OCN in stimulation media: 0.15 ng/mL
INS-1 832/3 cells [1]; replicate 2
  OCN in stimulation media: 0.18 ng/mL
INS-1 832/3 cells [1]; replicate 3
  OCN in stimulation media: 0.17 ng/mL
INS-1 832/3 cells [2]; replicate 1
  Ins1 gene expression (Fold change relative to vehicle): 0.663 Fold change
INS-1 832/3 cells [2]; replicate 2
  Ins1 gene expression (Fold change relative to vehicle): 1.9 Fold change
INS-1 832/3 cells [2]; replicate 3
  Ins1 gene expression (Fold change relative to vehicle): 0.6 Fold change
INS-1 832/3 cells [2]; replicate 4
  Ins1 gene expression (Fold change relative to vehicle): 1.4 Fold change
INS-1 832/3 cells [2]; replicate 5
  Ins1 gene expression (Fold change relative to vehicle): 0.337 Fold change
INS-1 832/3 cells [2]; replicate 6
  Ins1 gene expression (Fold change relative to vehicle): 0.4 Fold change
INS-1 832/3 cells [2]; replicate 7
  Ins1 gene expression (Fold change relative to vehicle): 2.7 Fold change
INS-1 832/3 cells [2]; replicate 8
  Ins1 gene expression (Fold change relative to vehicle): 3.6 Fold change
INS-1 832/3 cells [2]; replicate 9
  Ins1 gene expression (Fold change relative to vehicle): 2.4 Fold change
INS-1 832/3 cells [2]; replicate 10
  Ins1 gene expression (Fold change relative to vehicle): 1.3 Fold change
INS-1 832/3 cells [2]; 0.3 ng/ml, quantitative PCR
  Ins1 expression increase: 1.5 fold
[3]; 37°C, 2 hr, ELISA
  stability in saline solution containing 3.5% BSA: stable
[3]; Bglap-/- mouse plasma, 37°C, 0 min, ELISA, replicate 1
  % OCN from initial: 100.0%
[3]; Bglap-/- mouse plasma, 37°C, 0 min, ELISA, replicate 2
  % OCN from initial: 100.0%
[3]; Bglap-/- mouse plasma, 37°C, 0 min, ELISA, replicate 3
  % OCN from initial: 100.0%
[3]; Bglap-/- mouse plasma, 37°C, 15 min, ELISA, replicate 1
  % OCN from initial: 87.1%
[3]; Bglap-/- mouse plasma, 37°C, 15 min, ELISA, replicate 2
  % OCN from initial: 96.1%
[3]; Bglap-/- mouse plasma, 37°C, 15 min, ELISA, replicate 3
  % OCN from initial: 88.6%
[3]; Bglap-/- mouse plasma, 37°C, 30 min, ELISA, replicate 1
  % OCN from initial: 81.2%
[3]; Bglap-/- mouse plasma, 37°C, 30 min, ELISA, replicate 2
  % OCN from initial: 85.3%
[3]; Bglap-/- mouse plasma, 37°C, 30 min, ELISA, replicate 3
  % OCN from initial: 89.8%
[3]; Bglap-/- mouse plasma, 37°C, 60 min, ELISA, replicate 1
  % OCN from initial: 73.3%
[3]; Bglap-/- mouse plasma, 37°C, 60 min, ELISA, replicate 2
  % OCN from initial: 71.4%
[3]; Bglap-/- mouse plasma, 37°C, 60 min, ELISA, replicate 3
  % OCN from initial: 69.0%
[3]; Bglap-/- mouse plasma, 37°C, 90 min, ELISA, replicate 1
  % OCN from initial: 67.3%
[3]; Bglap-/- mouse plasma, 37°C, 90 min, ELISA, replicate 2
  % OCN from initial: 65.7%
[3]; Bglap-/- mouse plasma, 37°C, 90 min, ELISA, replicate 3
  % OCN from initial: 66.9%
[3]; Bglap-/- mouse plasma, 37°C, 120 min, ELISA, replicate 1
  % OCN from initial: 60.1%
[3]; Bglap-/- mouse plasma, 37°C, 120 min, ELISA, replicate 2
  % OCN from initial: 56.6%
[3]; Bglap-/- mouse plasma, 37°C, 120 min, ELISA, replicate 3
  % OCN from initial: 51.9%
[3]; Bglap-/- mouse plasma, 37°C, 180 min, ELISA, replicate 1
  % OCN from initial: 51.9%
[3]; Bglap-/- mouse plasma, 37°C, 180 min, ELISA, replicate 2
  % OCN from initial: 46.9%
[3]; Bglap-/- mouse plasma, 37°C, 180 min, ELISA, replicate 3
  % OCN from initial: 43.8%
[3]; Bglap-/- mouse plasma, 37°C, 300 min, ELISA, replicate 1
  % OCN from initial: 36.9%
[3]; Bglap-/- mouse plasma, 37°C, 300 min, ELISA, replicate 2
  % OCN from initial: 36.3%
[3]; Bglap-/- mouse plasma, 37°C, 300 min, ELISA, replicate 3
  % OCN from initial: 30.7%
[3]; Figure 3D, Bglap-/- mouse plasma, 2hrs, 4°C, Not HI, ELISA, replicate 1
  % OCN from initial: 108.8%
[3]; Figure 3D, Bglap-/- mouse plasma, 2hrs, 4°C, Not HI, ELISA, replicate 2
  % OCN from initial: 99.4%
[3]; Figure 3D, Bglap-/- mouse plasma, 2hrs, 4°C, Not HI, ELISA, replicate 3
  % OCN from initial: 94.3%
[3]; Figure 3D, Bglap-/- mouse plasma, 2hrs, 37°C, HI (heat-inactivated plasma), ELISA, replicate 1
  % OCN from initial: 108.8%
[3]; Figure 3D, Bglap-/- mouse plasma, 2hrs, 37°C, HI (heat-inactivated plasma), ELISA, replicate 2
  % OCN from initial: 108.9%
[3]; Figure 3D, Bglap-/- mouse plasma, 2hrs, 37°C, HI (heat-inactivated plasma), ELISA, replicate 3
  % OCN from initial: 82.4%
[3]; Figure 3D, Bglap-/- mouse plasma, 2hrs, 37°C, Not HI, ELISA, replicate 1
  % OCN from initial: 34.6%
[3]; Figure 3D, Bglap-/- mouse plasma, 2hrs, 37°C, Not HI, ELISA, replicate 2
  % OCN from initial: 23.3%
[3]; Figure 3D, Bglap-/- mouse plasma, 2hrs, 37°C, Not HI, ELISA, replicate 3
  % OCN from initial: 37.9%
[3]; Figure 3D, Bglap-/- mouse plasma, T0, ELISA, replicate 1
  % OCN from initial: 101.3%
[3]; Figure 3D, Bglap-/- mouse plasma, T0, ELISA, replicate 2
  % OCN from initial: 100.0%
[3]; Figure 3D, Bglap-/- mouse plasma, T0, ELISA, replicate 3
  % OCN from initial: 98.7%
[3]; Figure 3 supplement 3A, 3.5% BSA in saline solution, 2 hours at 37 °C, replicate 1
  % OCN from initial: 108.8%
[3]; Figure 3 supplement 3A, 3.5% BSA in saline solution, 2 hours at 37 °C, replicate 2
  % OCN from initial: 110.0%
[3]; Figure 3 supplement 3A, 3.5% BSA in saline solution, 2 hours at 37 °C, replicate 3
  % OCN from initial: 106.2%
[3]; Figure 3 supplement 3A, Bglap-/- mouse plasma, 4°C, T=2hours, replicate 1
  % OCN from initial: 94.9%
[3]; Figure 3 supplement 3A, Bglap-/- mouse plasma, 4°C, T=2hours, replicate 2
  % OCN from initial: 99.7%
[3]; Figure 3 supplement 3A, Bglap-/- mouse plasma, 4°C, T=2hours, replicate 3
  % OCN from initial: 100.1%
[3]; Figure 3 supplement 3A, Bglap-/- mouse plasma, 2 hours at 37 °C, Pepstatin A (10uM), replicate 1
  % OCN from initial: 52.2%
[3]; Figure 3 supplement 3A, Bglap-/- mouse plasma, 2 hours at 37 °C, Pepstatin A (10uM), replicate 2
  % OCN from initial: 57.4%
[3]; Figure 3 supplement 3A, Bglap-/- mouse plasma, 2 hours at 37 °C, Pepstatin A (10uM), replicate 3
  % OCN from initial: 69.1%
[3]; Figure 3 supplement 3A, Bglap-/- mouse plasma, 2 hours at 37 °C, RVKR (50uM), replicate 1
  % OCN from initial: 56.2%
[3]; Figure 3 supplement 3A, Bglap-/- mouse plasma, 2 hours at 37 °C, RVKR (50uM), replicate 2
  % OCN from initial: 66.8%
[3]; Figure 3 supplement 3A, Bglap-/- mouse plasma, 2 hours at 37 °C, RVKR (50uM), replicate 3
  % OCN from initial: 78.0%
[3]; Figure 3 supplement 3A, Bglap-/- mouse plasma, 2 hours at 37 °C, vehicle (V), replicate 1
  % OCN from initial: 48.4%
[3]; Figure 3 supplement 3A, Bglap-/- mouse plasma, 2 hours at 37 °C, vehicle (V), replicate 2
  % OCN from initial: 65.6%
[3]; Figure 3 supplement 3A, Bglap-/- mouse plasma, 2 hours at 37 °C, vehicle (V), replicate 3
  % OCN from initial: 67.2%
[3]; Figure 3 supplement 3A, Bglap-/- mouse plasma, T0, replicate 1
  % OCN from initial: 107.3%
[3]; Figure 3 supplement 3A, Bglap-/- mouse plasma, T0, replicate 2
  % OCN from initial: 96.2%
[3]; Figure 3 supplement 3A, Bglap-/- mouse plasma, T0, replicate 3
  % OCN from initial: 96.6%
[3]; Figure 3 supplement 3B, Bglap-/- mouse plasma, 4°C, T=2hours, replicate 1
  % OCN from initial: 108.8%
[3]; Figure 3 supplement 3B, Bglap-/- mouse plasma, 4°C, T=2hours, replicate 2
  % OCN from initial: 99.4%
[3]; Figure 3 supplement 3B, Bglap-/- mouse plasma, 4°C, T=2hours, replicate 3
  % OCN from initial: 94.3%
[3]; Figure 3 supplement 3B, Bglap-/- mouse plasma, 2 hours at 37 °C, 10 mM EDTA, replicate 1
  % OCN from initial: 37.4%
[3]; Figure 3 supplement 3B, Bglap-/- mouse plasma, 2 hours at 37 °C, 10 mM EDTA, replicate 2
  % OCN from initial: 24.3%
[3]; Figure 3 supplement 3B, Bglap-/- mouse plasma, 2 hours at 37 °C, 10 mM EDTA, replicate 3
  % OCN from initial: 37.4%
[3]; Figure 3 supplement 3B, Bglap-/- mouse plasma, 2 hours at 37 °C, vehicle (V), replicate 1
  % OCN from initial: 34.6%
[3]; Figure 3 supplement 3B, Bglap-/- mouse plasma, 2 hours at 37 °C, vehicle (V), replicate 2
  % OCN from initial: 23.3%
[3]; Figure 3 supplement 3B, Bglap-/- mouse plasma, 2 hours at 37 °C, vehicle (V), replicate 3
  % OCN from initial: 37.9%
[3]; Figure 3 supplement 3B, Bglap-/- mouse plasma, T0, replicate 1
  % OCN from initial: 101.3%
[3]; Figure 3 supplement 3B, Bglap-/- mouse plasma, T0, replicate 2
  % OCN from initial: 100.0%
[3]; Figure 3 supplement 3B, Bglap-/- mouse plasma, T0, replicate 3
  % OCN from initial: 98.7%
[3]; fresh Bglap-/- mouse plasma (lithium heparin), 37°C, total mouse OCN ELISA, n = 4 plasma
  half-life in plasma ex vivo: ~ 120 min
INS-1 832/3 cells [4]; replicate 1
  OCN in stimulation media: 0.037 ng/mL
INS-1 832/3 cells [4]; replicate 2
  OCN in stimulation media: 0.028 ng/mL
INS-1 832/3 cells [4]; replicate 3
  OCN in stimulation media: 0.03 ng/mL
